Where a chain is given by its changes, count along the chain named. Names and notes keep the numbering of the source. One block for each binder: values may come before it.
Legend:
[1] = biological target: T1, human B7H4, full length, on cells (human, UniProt Q7Z7D3 25-282); experiment: flow cytometry on MDA-MB-468 tumor cells [MDA-MB-468 left panel]
T1 construct: Uniprot Q7Z7D3; Used for transfected HEK cells and for the B7H4-expressing human tumor cell lines (endogenous B7H4); also called VTCN1
T1 sequence: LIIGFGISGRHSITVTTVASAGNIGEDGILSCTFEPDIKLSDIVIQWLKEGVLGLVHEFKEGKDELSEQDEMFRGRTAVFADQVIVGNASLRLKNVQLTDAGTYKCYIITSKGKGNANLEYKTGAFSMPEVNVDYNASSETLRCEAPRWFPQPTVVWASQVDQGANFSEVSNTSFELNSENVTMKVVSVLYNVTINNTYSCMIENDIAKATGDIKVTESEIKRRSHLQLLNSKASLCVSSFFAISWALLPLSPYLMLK
Experimental: (§1) Cells (3×10⁴ cells/well) were incubated in polystyrene 96-well round-bottom plates (Greiner bio-one, cat. no. 650180) with serial dilutions of antibodies (ranging from 0.000458 to 30 μg/mL in 4-fold dilution steps) in 100 μL PBS/0.1% BSA/0.02% azide (staining buffer) at 4° C. for 30 min. Experiments were performed in technical duplicate. After washing twice in staining buffer, cells were incubated in 50 μL secondary antibody at 4° C. for 30 min. As a secondary antibody, R-Phycoerythrin (PE)-conjugated goat-anti-human IgG F(ab′)₂ (1:500 in FACS buffer; Jackson ImmunoResearch Laboratories, Inc., West Grove, PA, cat. no. 109-116-098), was used. Cells were washed twice in staining buffer, re-suspended in 30 μL FACS buffer containing Topro-3 (1:10,000 dilution) and analyzed on an iQue Screener (Intellicyt Corporation, USA). Binding curves were analyzed using non-linear regression (sigmoidal dose-response with variable slope) using GraphPad Prism V7.02 software (GraphPad Software, San Diego, CA, USA).
Binding was analyzed by flow cytometry as described above.

[2] = biological target: T2, cynomolgus monkey (Macaca fascicularis) B7H4 transcript 1, full length, on HEK-293F cells (cynomolgus monkey, UniProt Q7Z7D3 25-282 (human entry)); experiment: flow cytometry, HEK-293F cells transfected with cynomolgus monkey B7H4 [panel Cynomolgus monkey B7H4]
T2 construct: Uniprot A0A2K5U6P5; also called cynomolgus monkey B7H4; cynomolgus B7H4
T2 chain: T1 sequence with L53I, F242L, S252A
Experimental: as §1

[3] = biological target: T3, rat (Rattus norvegicus) B7H4, full length, on HEK-293F cells (rat, UniProt Q501W4 25-257); experiment: flow cytometry, HEK-293F cells transiently transfected with rat B7H4, PE anti-human IgG F(ab')2 [panel Rat B7H4]
T3 construct: Uniprot Q501W4; also called rat B7H4
T3 sequence: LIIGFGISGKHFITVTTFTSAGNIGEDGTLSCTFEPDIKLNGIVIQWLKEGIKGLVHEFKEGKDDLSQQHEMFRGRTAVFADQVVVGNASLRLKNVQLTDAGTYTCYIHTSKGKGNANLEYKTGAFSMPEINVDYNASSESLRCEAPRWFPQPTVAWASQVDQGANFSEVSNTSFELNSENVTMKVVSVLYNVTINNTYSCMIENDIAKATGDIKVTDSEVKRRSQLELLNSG
Experimental: as §1

[4] = biological target: T1, human B7H4, full length, on cells; experiment: flow cytometry, HEK-293F cells transiently transfected with human B7H4, PE anti-human IgG F(ab')2 [panel Human B7H4]
Experimental: as §1

[5] = biological target: T4, mouse (Mus musculus) B7H4, full length, on HEK-293F cells (mouse, UniProt Q7TSP5 25-257); experiment: flow cytometry, HEK-293F cells transiently transfected with mouse B7H4, PE anti-human IgG F(ab')2 [panel Mouse B7H4]
T4 construct: Uniprot Q7TSP5; also called mouse B7H4
T4 sequence: T3 sequence with H109R, E228Q
Experimental: as §1

[6] = biological target: T5, rabbit (Oryctolagus cuniculus) B7H4, full length, on HEK-293F cells (rabbit, UniProt Q7Z7D3 25-282 (human entry)); experiment: flow cytometry, HEK-293F cells transiently transfected with rabbit B7H4, PE anti-human IgG F(ab')2 [panel Rabbit B7H4]
T5 construct: Uniprot G1TQE8; also called rabbit B7H4
T5 chain: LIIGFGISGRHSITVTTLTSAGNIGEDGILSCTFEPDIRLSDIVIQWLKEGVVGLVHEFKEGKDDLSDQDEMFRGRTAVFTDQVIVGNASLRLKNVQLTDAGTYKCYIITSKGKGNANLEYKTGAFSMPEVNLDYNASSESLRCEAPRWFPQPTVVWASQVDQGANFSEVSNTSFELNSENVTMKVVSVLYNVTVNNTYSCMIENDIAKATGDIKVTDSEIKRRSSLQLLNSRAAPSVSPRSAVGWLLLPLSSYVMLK
Experimental: as §1

[7] = biological target: T2, cynomolgus monkey (Macaca fascicularis) …; experiment: flow cytometry, HEK-293F cells transiently transfected with cynomolgus monkey B7H4, PE anti-human IgG F(ab')2 [panel Cynomolgus monkey B7H4]
Experimental: as §1

EC50 (read off the curve) [1]: ~1 µg/mL
EC50 (read off the curve) [2]: ~0.1 µg/mL
EC50 (read off the curve) [3]: ~0.3 µg/mL
EC50 (read off the curve) [4]: ~0.3 µg/mL
EC50 (read off the curve) [5]: ~0.3 µg/mL
EC50 (read off the curve) [6]: ~0.3 µg/mL
EC50 (read off the curve) [7]: ~0.2 µg/mL
B1: IgG1-B7H4-C1-N52S-FEAR (antibody, V domains shown)
VH: QVQLQQWGAGLLKPSETLSLTCAVYGGSFSGYYWSWIRQPPGKGLEWIGEISHSGSTNYNPSLKSRVTISIDTSKNQFSLKLTSVTAADTAVFYCARGLFNWNFDSWGQGTLVTVSS
VL: DIQMTQSPSSLSASVGDRVTITCRASQGIRNDLGWYQQKPGKAPKRLIYGASSLQSGVPSRFSGSGSGTEFTLTISSLQPEDFATYYCLQHNSYPRTFGQGTTVEIKR
notes: Full length human IgG1 with L234F, L235E, D265A, K409R (FEAR) heavy chain constant region and kappa light chain; bivalent, monospecific; also called IgG1-B7H4-C1-052S-FEAR

EC50 (read off the curve) [1]: ~0.2 µg/mL
binding result [2]: binds
B2: IgG1-B7H4-C5-FEAR (antibody, V domains shown)
VH: QLQLQESGPGLVKPSETLSLTCTVSGGSIKSGSYYWGWIRQPPGKGLEWIGNIYYSGSTYYNPSLRSRVTISVDTSKNQFSLKLSSVTAADTAVYYCAREGSYPNQFDPWGQGTLVTVSS
VL: EIVMTQSPATLSVSPGERATLSCRASQSVSSNLAWYQQKPGQAPRLLIYGASTRATGIPARFSGSGSGTEFTLTISSLQSEDFAVYYCQQYHSFPFTFGGGTKVEIKR
notes: Full length IgG1 FEAR, kappa; variable domains from US20190085080A1

B3: bsIgG1-huCD3-H101G-FEALxB7H4-C1-N52S-FEAR (bispecific antibody)
heavy 1: not shown
light 1: not shown
heavy 2: QVQLQQWGAGLLKPSETLSLTCAVYGGSFSGYYWSWIRQPPGKGLEWIGEISHSGSTNYNPSLKSRVTISIDTSKNQFSLKLTSVTAADTAVFYCARGLFNWNFDSWGQGTLVTVSSASTKGPSVFPLAPSSKSTSGGTAALGCLVKDYFPEPVTVSWNSGALTSGVHTFPAVLQSSGLYSLSSVVTVPSSSLGTQTYICNVNHKPSNTKVDKRVEPKSCDKTHTCPPCPAPEFEGGPSVFLFPPKPKDTLMISRTPEVTCVVVAVSHEDPEVKFNWYVDGVEVHNAKTKPREEQYNSTYRVVSVLTVLHQDWLNGKEYKCKVSNKALPAPIEKTISKAKGQPREPQVYTLPPSREEMTKNQVSLTCLVKGFYPSDIAVEWESNGQPENNYKTTPPVLDSDGSFFLYSRLTVDKSRWQQGNVFSCSVMHEALHNHYTQKSLSLSPGK
light 2: DIQMTQSPSSLSASVGDRVTITCRASQGIRNDLGWYQQKPGKAPKRLIYGASSLQSGVPSRFSGSGSGTEFTLTISSLQPEDFATYYCLQHNSYPRTFGQGTTVEIKRTVAAPSVFIFPPSDEQLKSGTASVVCLLNNFYPREAKVQWKVDNALQSGNSQESVTEQDSKDSTYSLSSTLTLSKADYEKHKVYACEVTHQGLSSPVTKSFNRGEC
notes: also called bslgG1-huCD3-H101G-FEALxB7H4-C1-N52S-FEAR; BslgG1-huCD3-H101G-FEALxB7H4-C1-N52S-FEAR
binding result [3]: binds
EC50 (read off the curve) [4]: ~0.9 µg/mL
binding result [5]: binds
binding result [6]: binds
EC50 (read off the curve) [7]: ~0.6 µg/mL
